This data set concerns the target T1, 65K C-RRM WT untagged (UniProt Q96LT9 381-516).
T1 sequence: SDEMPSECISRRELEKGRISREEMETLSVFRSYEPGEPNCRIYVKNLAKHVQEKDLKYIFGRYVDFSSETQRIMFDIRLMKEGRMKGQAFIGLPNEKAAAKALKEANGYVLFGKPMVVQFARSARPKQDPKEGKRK
Put plainly: NMR chemical shift perturbation.

These results are taken from paper PMC5824358.

As for CCCGCCUACUUUGCGGG (structured_RNA) [U12 oligo], the binding result is listed as “binds”.
